Test results: PMC3418257

Target: glutathione-S-transferase coupled human VDR fusion protein (human) (UniProt P11473)
Experiment: pull-down; GSThVDR-Sepharose bead slurry as bait, [35S]-labelled in vitro translated RUNX2 as prey; PPI buffer (20 mM HEPES pH 7.9, 200 mM KCl, 1 mM EDTA, 4 mM MgCl2, 1 mM dithiothreitol, 0.1% Nonidet P-40, 10% glycerol), beads pre-blocked with BSA; with or without 1,25(OH)2D3; SDS-PAGE, autoradiography, densitometry

Sequence of UniProt P11473 (P11473 whole entry, the tested form may be a part): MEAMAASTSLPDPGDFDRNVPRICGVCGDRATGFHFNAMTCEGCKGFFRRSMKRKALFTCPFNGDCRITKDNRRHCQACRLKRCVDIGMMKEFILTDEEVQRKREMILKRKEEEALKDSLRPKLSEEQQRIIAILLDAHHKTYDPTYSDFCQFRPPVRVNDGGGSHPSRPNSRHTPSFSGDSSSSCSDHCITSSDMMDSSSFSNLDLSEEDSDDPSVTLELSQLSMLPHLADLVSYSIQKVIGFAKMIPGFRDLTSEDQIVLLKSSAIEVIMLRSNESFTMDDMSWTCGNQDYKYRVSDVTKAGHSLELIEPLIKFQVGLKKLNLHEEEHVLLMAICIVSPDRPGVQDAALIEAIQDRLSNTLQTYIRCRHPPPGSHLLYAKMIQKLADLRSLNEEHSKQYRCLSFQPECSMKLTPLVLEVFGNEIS

Q: “human RUNX2 23Q wild type (natural protein)” was tested. Which percent of label recovered in pull down did it give?
A: Its percent of label recovered in pull down is 25%.
